Data: article PMC8333356 (Nature Communications, 2021)

B1: Nb36 (VHH)
VHH: VQLVESGGGLVQAGGSLTLTCAASGRTFSSETMDMGWFRQAPGKEREFVAADSWNDGSTYYADSVKGRFTISRDSAKNTLYLQMNSLKPEDTAVYYCAAETYSIYEKDDSWGYWGQGTQVTVS
notes: Cloned in pET-21b(+); also called class III Nb; source: E. coli BL21 (DE3), purified (cobalt resin, Superdex 75)
B2: Nb105 (VHH)
VHH: VQLVESGGGLVQAGGSLRLSCAVSGRTFSTYGMAWFRQAPGKERDFVATITRSGETTLYADSVKGRFTISRDNAKNTVYLQMNSLKIEDTAVYYCAVRRDSSWGYSRDLFEYDYWGQGTQVTVS
notes: Cloned in pET-21b(+); also called class II Nb; source: E. coli BL21 (DE3), purified (cobalt resin, Superdex 75)

Biological target: receptor binding domain (RBD) of SARS-CoV-2 spike (SARS-CoV-2 Wuhan-Hu-1, UniProt P0DTC2)
Experiment: cryo-EM structure
Details: both partners purified

Binder | binding result
B1 | binds
B2 | binds
